The stoichiometry N is a count of units in the complex or per binding partner.

This data set concerns the molecule itself. Nature of the data set: crystal structure.

B1: coproheme decarboxylase (HemQ) from Geobacillus stearothermophilus (enzyme)
chain: MSEAAQTLDGWYCLHDFRTIDWSAWKTLPNEEREAAISEFLALVDQWETTESEKQGSHAVYTIVGQKADILFMILRPTLDELHEIETALNKTKLADYLLPAYSYVSVVELSNYLASGSEDPYQIPEVRRRLYPILPKTNYICFYPMDKRRQGNDNWYMLSMEQRRELMRAHGMTGRKYAGKVTQIITGSVGLDDFEWGVTLFSDDALQFKKLVYEMRFDEVSARFGEFGSFFVGTRLPMENVSSFFHV
B1: the “stoichiometry N” value amounted to 5.
